US9791449B2, “Ovarian cancer stem cells and methods of isolation and uses thereof” (THE GENERAL HOSPITAL CORPORATION, priority 2011, dated 2017)
Entries after “also recorded” stand apart in the source; their conditions may differ.

Key:
3+/Ecad− OVCAR-5 cells = experiment: Colony formation assay of FACS-separated cells; assay type: cell-based, human; conditions: OVCAR-5 3+/Ecad− cells, 2000 cells in six-well plates; MIS 30 ug/ml or Doxorubicin 30 nM vs media, 14 days
Protocol: Colony formation was performed as previously described (4; wei 2010). 3+/Ecad− or 3−/Ecad+ cells separated from the ovarian cancer cell lines were treated with MIS or doxorubicin, cisplatin, or taxol, then plated on 6-well plates containing 2 ml/well complete DMEM medium at 500, 1000, or 2000 cells/well, and incubated for 14 days at 37° C., with a media change at day 7. Cells separated from primary ascites were plated on 12-well plates coated by metrigel or by agarose for colony formation assays at 25,000, 50,000, or 100,000 cells/well. Cells were seeded on 1:2 metrigel or in 0.4% agarose over a 0.8% layer, and incubated for 3-4 weeks at 37° C. At day 14 (cell lines) or day 21 (ascites), plates were washed with 1×PBS, and cells fixed with methanol. Resulting colonies were stained with Giemsa and the stained area captured and analyzed using Image J (Rasband, NIH, USA, http://rsb.info.nih.gov/ij/). Large colonies greater than 4 mm at 10× magnification were also counted and compared.

OVCAR-5 cells = experiment: Cell cycle analysis by flow cytometry; assay type: cell-based, human; conditions: 100 μg/mL (714 nM) MIS or 60 nM doxorubicin, 48 h
Protocol: OVCAR-5 was grown to 50-60% confluency in DMEM with 10% FCS, untreated or treated with 100 μg/mL (714 nM) MIS or 60 nM doxorubicin for 48 h, harvested, and incubated with 10 μg/mL Hoechst 33342 at 37° C. for 30 min or 40 μg/mL propidium iodide (Sigma) at 25° C. for 30 min. Cells were stained with anti-human CD24-PE, anti-mouse/human CD44-APC/Cy7, anti-human Epcam-APC, and anti-human Ecadherin-FITC for 20 min at 4° C. and fixed in paraformaldehyde (1%), and the cell cycle was analyzed using the SORP LSRII.

[1] = test system: MOVCAR-7 and MOVCAR-8 cell lines; experiment: qPCR of CDK inhibitor mRNAs relative to GAPDH; assay type: cell-based, mouse
Protocol: Total microRNA (miRNAs) were extracted from the different cell lines HOSE-4, HOSE-6, OVCAR-5, OVCAR-3, OVCAR-8, IGROV-1, and SKOV-3 using the miRNeasy Mini kit (QIAGEN) and reverse-transcribed to cDNAs using the TaqMan MicroRNA Reverse Transcription Kit (Applied Biosystems). Levels of Let-7c miRNAs were measured by quantitative PCR using TagMan Let-7 probes (Applied Biosystems; part no. 4373167) with U47 RNA as internal standard for normalization. Total mRNAs were also extracted from separated and unseparated OVCAR-5, MOVCAR-7, and MOVCAR-8 cell lines using an RNeasy Mini kit (QIAGEN) and reverse-transcribed to cDNAs using the SuperScript III Reverse Transcription Kit (Invitrogen). Levels of Lin28 and cyclin-dependent kinase (CDK) inhibitor mRNAs were measured by quantitative PCR with GAPDH as an internal standard using the following primers: […]
LIN28 F ([…])(SEQ ID NO: 34) and R ([…])(SEQ ID NO: 35); p15 F ([…])(SEQ ID NO: 36) and R ([…])(SEQ ID NO: 37); p16 F ([…])(SEQ ID NO: 38) and R ([…])(SEQ ID NO: 39); p18 F ([…])(SEQ ID NO: 40) and R ([…])(SEQ ID NO: 41); p19F ([…])(SEQ ID NO: 42) and R ([…])(SEQ ID NO: 43); p21 F ([…])(SEQ ID NO: 44) and R ([…])(SEQ ID NO: 45); p27 F ([…])(SEQ ID NO: 46) and R ([…])(SEQ ID NO: 47); CDK2 F ([…])(SEQ ID NO: 48) and R ([…])(SEQ ID NO: 49); CDK4 F ([…])(SEQ ID NO: 50) and R([…])(SEQ ID NO: 51); CDK6 F ([…])(SEQ ID NO: 52) and R ([…])(SEQ ID NO: 53); and GAPDH F ([…])(SEQ ID NO: 54) and R ([…])(SEQ ID NO: 55). Relative fold changes of Let-7c miRNAs and Lin28 and CDK inhibitor mRNAs were calculated as ΔCt or ΔΔCt (1) (n=3 for each primer).

[2] = test system: SMAD1/5/8 in MOVCAR-8 cells; experiment: Western blot with phospho-Smad1/5/8 antibody; assay type: cell-based, mouse; conditions: MOVCAR-8, 20 ug/ml MIS for 15 min, 2, 4 and 6 h
Protocol: (§1) FIGS. 5A-5B show MISRII is expressed in ovarian cancer cell lines and SMAD 1/5/8 is phosphorylated after treatment with purified MIS. FIG. 5A show expression of MIS type II receptor in human ovarian cancer cell lines OVCAR-5, IGROV-1 and SKOV-3, and in mouse ovarian cancer cell line MOVCAR-8 were analyzed by immunoprecipitation and cross immunoblotting (IB) of lysates with anti-MISRII (Left) Immunoblotting was also performed to detect MISRII expression in separated 3+, 3−, 3+/Ecad−, 3−Ecad+ of OVCAR-5 xenograft tumors (Right). COS cells transfected with a MISRII vector or a pcDNA empty vector served as positive or negative controls (Right). […] MOVCAR-8 (Left) or OVCAR-5 (Right) cells were treated with 20 ug/ml (Left) or 100 ug/ml (Right) MIS for 15 min, 2, 4 and 6 h, and protein was analyzed by Western blot using a phospho-Smad1/5/8 antibody.
(§2) Lysates were harvested in lysis buffer (Cell Signaling; catalog no. 9803) for 15 min from 80% subconfluent cells or from ascite cells after lysing red cells. Proteins were fractionated on SDS-polyacrylamide gels and transferred to a membrane. […] Blots were washed (three times) with TBST the following day for 30 min and incubated with the appropriate peroxidase-conjugated second antibodies for 1 h, and bound antibodies were detected with enhanced chemiluminescence (PerkinElmer Life Sciences).

[3] = test system: SMAD1/5/8 in OVCAR-5 cells; experiment: Western blot with phospho-Smad1/5/8 antibody; assay type: cell-based, human; conditions: OVCAR-5, 100 ug/ml MIS for 15 min, 2, 4 and 6 h
Protocol: as §1, §2

[4] = test system: Lin28 in OVCAR-5 cells or primary ascites; experiment: Effect of exogenously administered MIS on Lin28 expression; assay type: cell-based, human; conditions: separated or unseparated OVCAR-5 cells or primary ascites; data not shown
[5] = test system: ovarian cancer cells marked by CD44, CD24, and Epcam (3+); conditions: cited from earlier work
3+/Ecad− population = conditions: cited from earlier work
[6] = test system: epithelial ovarian cancers; conditions: cited from earlier work
[7] = in vivo; cited from earlier work
OVCAR-8 cells = conditions: cited from earlier work
[8] = listed as human recombinant MIS

B1: MIS: 140 kDa glycoprotein disulfide linked homodimer secreted by fetal testes; produced recombinantly and immunoaffinity purified (protein, listed as Homo sapiens)
chain: MRDLPLTSLALVLSALGALLGTEALRAEEPAVGTSGLIFREDLDWPPGSPQEPLCLVALGGDSNGSSSPLRVVGALSAYEQAFLGAVQRARWGPRDLATFGVCNTGDRQAALPSLRRLGAWLRDPGGQRLVVLHLEEVTWEPTPSLRFQEPPPGGAGPPELALLVLYPGPGPEVTVTRAGLPGAQSLCPSRDTRYLVLAVDRPAGAWRGSGLALTLQPRGEDSRLSTARLQALLFGDDHRCFTRMTPALLLLPRSEPAPLPAHGQLDTVPFPPPRPSAELEESPPSADPFLETLTRLVRALRVPPARASAPRLALDPDALAGFPQGLVNLSDPAALERLLDGEEPLLLLLRPTAATTGDPAPLHDPTSAPWATALARRVAAELQAAAAELRSLPGLPPATAPLLARLLALCPGGPGGLGDPLRALLLLKALQGLRVEWRGRDPRGPGRAQRSAGATAADGPCALRELSVDLRAERSVLIPETYQANNCQGVCGWPQSDRNPRYGNHVVLLLKMQARGAALARPPCCVPTAYAGKLLISLSEERISAHHVPNMVATECGCR
modifications: homodimer
In the case of B1, the “colony formation of 3+/Ecad− cells” value (3+/Ecad− OVCAR-5 cells) is reported as “decreased colony formation; also recorded: decreases significantly; also recorded: significantly inhibited colony growth; also recorded: significant reduction in absolute colony number and cell number; also recorded: significant reduction in absolute colony numbers; also recorded: inhibited colony formation”, the “G1 distribution of 3+/Ecad+ population” value (OVCAR-5 cells) is reported as “neither MIS nor doxorubicin affected” and the “percentage of 3+/Ecad− cells in G1” value (OVCAR-5 cells) is reported as “inducing G1 arrest; also recorded: significantly increased; also recorded: G1 accumulation; also recorded: induces G1 cell cycle arrest”. The p15 expression ([1]; MOVCAR-7 and -8, 50 μg/mL MIS or 60 nM doxorubicin vs vehicle, 4 h) was “specifically increased; also recorded: significant and opposite responses”, the “other CDK inhibitors mRNA levels (p18, p19, p21, p27)” value ([1]; MOVCAR-7 or -8, 50 μg/mL MIS or 60 nM doxorubicin, 4 h) was “did not regulate significantly” and the p16 expression ([1]; MOVCAR-8, 50 μg/mL MIS vs vehicle, 4 h) was “specifically increased”. For the same molecule, the “kinases tested (CDK2, CDK4, CDK6)” value ([1]; transgenic cell lines treated with MIS or doxorubicin, data not shown) was “unaffected”, the SMAD1/5/8 phosphorylation [2] was “significantly increased” and the SMAD1/5/8 phosphorylation [2, 8] was “activates SMAD1/5/8 signaling”. The SMAD1/5/8 phosphorylation [3] was “significantly increased”, the SMAD1/5/8 phosphorylation [3, 8] was “activates SMAD1/5/8 signaling” and the “effect on Lin28 expression” value [4] was “no direct effect”. The “inhibition of 3+ enriched population” value [5] was “significantly inhibited”, the “response of 3+/Ecad− population” value (3+/Ecad− population) was “responded well” and the “combination with commonly used cancer drugs to control tumor growth” value [6] was “synergistically or additively”. The “growth of epithelial ovarian cancers” value ([6]; in vitro and in vivo) was “inhibits their growth”, the “toxicity after prolonged therapy” value [7] was “without obvious toxicity” and the P16 protein level (OVCAR-8 cells) was “upregulated”.
